Assay results taken from patent US20240052027A1 (OBLIQUE THERAPEUTICS, published 2024).
Substitutions are numbered along the chain they refer to. Bridge positions count the residues as written; N and C are the ends. * marks the point of attachment. Propargyl = C#CC*

B1: 33B6-1 (antibody, V domains shown)
VH: QSLEESGGRLVTPGTPLTLTCTASGLSLSSYDMNWVRQAPGKGLEYIGFINTRGSAYYASWATGRFTISRTSTTVDLTMTSPTTEDTATYFCARDIPDWDIGHVFDLWGPGTLVTVSS
VL: AYDMTQTPASVEVTMGGAVTIKCQASQSISNELSWYQQKPGQRPRLLIYQASALASGVPSRFKGSGYGTQFTLTISDLECADAATYYCQQGYTSNNIVNAFGGGTEVVVK
notes: Recombinant rabbit IgG with rabbit kappa light chain, made in HEK cells; Also tested as B-cell clone supernatant; also called monoclonal antibody 33B6-1
B2: 27A2-1 (antibody, V domains shown)
VH: B1 VH with S6A, T15G, P16S, Y46F, S55T, T63K, D100N
VL: B1 VL with K22N, S30T, S34A
notes: Recombinant rabbit IgG with rabbit kappa light chain, made in HEK cells; Also tested as B-cell clone supernatant; also called monoclonal antibody 27A2-1
B3: 24C6-1 (antibody, V domains shown)
VH: QSVEESGGRLVTPGTPLTLTCTVSGFSLSTYAMAWVRQAPGKGLEWIGIIGQSSKTYYAIWAKGRFTISRTSTTVDLKIPSPTTEDTATYFCARGSTYVLDMWGPGTLVTVSL
VL: AVVMTQTASPVSAAVGGTVTIKCQASQSISSYLAWYQQKPGQPPKLLIADASKLVSGVPSRFKGSGSGTEFTLTISDLECADAATYYCQNYYGSSDFGTFGGGTEVVVE
notes: Recombinant rabbit IgG with rabbit kappa light chain, made in HEK cells; Also tested as B-cell clone supernatant; also called monoclonal antibody 24C6-1
B4: 4D11-1 (antibody, V domains shown)
VH: QEQVVESGGGLVQPEGSLTLTCTASGFDFSSNAMCWVRQAPGKGLAWIGCIGTGSSGSTYYASWARGRFTISKTSSTTVTLQMTSLTAADTATYFCPRDINAYGNDGWSFNLWGPGTLVTVSS
VL: AYDMTQTPASVEVAVGGTVTIKCQASQSIVGWLSWYQQKPGQPPKLLIYRASTLASGVPSRFKGSGSGTEFTLTISDLECDDAATYYCQQGYTFNNVDNPFGGGTEVLVK
notes: Recombinant rabbit IgG with rabbit kappa light chain, made in HEK cells; Also tested as B-cell clone supernatant; also called monoclonal antibody 4D11-1
B5: 2B11-1 (antibody, V domains shown)
VH: QSVGESGGRLVTPGTPLTLTCTVSGIDLSIYPVDWVRQAPGKGLEWIGIINTNGNTYYANWAKGRFTISKTSSTTVDLQVTSLTTEDTATYFCARHFDLWGQGTLVTVSS
VL: QVLTQTASPVSAAVGGTVTINCQSSQTVYNNNNLAWYQQKSGQPPKLLIYDSSKLESGVPSRFSGSGSGTQFTLTISDLECDDAATYYCAGGYGGWIAAFGGGTEVVVK
notes: Recombinant rabbit IgG with rabbit kappa light chain, made in HEK cells; Also tested as B-cell clone supernatant; also called monoclonal antibody 2B11-1
B6: 54F1-1 (antibody, V domains shown)
VH: B5 VH with I30V, N51S, Q79K, V80M
VL: B5 VL with S53F, G94A
notes: Recombinant rabbit IgG with rabbit kappa light chain, made in HEK cells; Also tested as B-cell clone supernatant; also called monoclonal antibody 54F1-1
B7: 29B5-1 (antibody, V domains shown)
VH: QSLEESGGRLVTPGTPLTLTCTVSGIDLSSVTMGWVRQAPGKGLEYIGVITTIRTTYYASWVNGRFTISQTSTTVDLKMTSLTTEDTATYFCARDGDTTNTYGYYFDIWGPGTLVTVSL
VL: AVVMTQTPASVEVAVGGTVTIKCQASQSISSYLAWYQQKPGQPPKLLIYKASTLASGVPSRFKGSGSGTQFTLTISGVQCDDAATYYCQQGYTGNNVDNIFGGGTEVVVK
notes: Recombinant rabbit IgG with rabbit kappa light chain, made in HEK cells; Also tested as B-cell clone supernatant; also called monoclonal antibody 29B5-1
B8: 23B9-1 (antibody, V domains shown)
VH: QSVEESGGRPVTPGTPLTLTCTVSGIDLSRYAVDWVRQAPGKGLEWIGIILTSGKISYASWVKGRFTISKTSTTVDLKMTSLTTEDTATYFCARHFDLWGQGTLVTVSS
VL: B5 VL with T27S, S41P, S64K, T75I, G94S, W96V, A99S
notes: Recombinant rabbit IgG with rabbit kappa light chain, made in HEK cells; Also tested as B-cell clone supernatant; also called monoclonal antibody 23B9-1
B9: 9E4-1 (antibody, V domains shown)
VH: B7 VH with T51V, T52P, I53R, R54G, T55A, S60N, N63K, Q70K, T99G, T101I
VL: AYDMTQTPASVSEPVGGTVTIKCQASQSISTALAWYQQKSGQRPKLLIYDAWKLASGVSSRFKGSGSGTQFTLTISGVQCDDAATYYCQQGYSGNNVDNVFGGGTEVVVS
notes: Recombinant rabbit IgG with rabbit kappa light chain, made in HEK cells; Also tested as B-cell clone supernatant; also called monoclonal antibody 9E4-1
B10: 69H7-1 (antibody, V domains shown)
VH: B1 VH with S30R, A56T, S60T, A62T
VL: B1 VL with E12S, V13G, T14A, M15V, A18T, K22N, A53T
notes: Recombinant rabbit IgG with rabbit kappa light chain, made in HEK cells; Also tested as B-cell clone supernatant; also called monoclonal antibody 69H7-1
B11: 75C9-1 (antibody, V domains shown)
VH: QEQVVESGGGLVQPEGSLTLTCTASGFSFNNNAMCWVRQAPGKGLEWIGCIGTAASGNSYYASWAKGRFTISRTSSTTVTLQMTSLTAADTATYFCPRDINAYGNDGWSFKLWGPGTLVTVSS
VL: AFELTQTPSSVEAAVGGTVTIKCQASQSINGWLSWYQQKPGQPPKLLIYRASPVASGVPSRFKGSGSGTEYTLTISGVQCDDAATYYCQQGYTFNNVDDPFGGGTEVVVK
notes: Recombinant rabbit IgG with rabbit kappa light chain, made in HEK cells; Also tested as B-cell clone supernatant; also called monoclonal antibody 75C9-1

Biological target: T1, OTV16 peptide (SEQ ID NO:3) (human, disulfide 1-18; SMILES …)
T1 construct: cyclic; Coated on ELISA plates
T1 peptide: Propargyl-CYRPVDGLPPFKMEKTGC-NH2
Assay: peptide ELISA of purified recombinant monoclonal antibody
Experimental: (§1) FIG. 6: Peptide ELISA of purified recombinant monoclonal antibodies. Monoclonal antibodies were tested for binding to OTV16 peptide, NHP-OTV16 peptide, mOTV16 peptide and rOTV16 peptide. Non-specific binding was determined using wells coated with bovine serum albumin (BSA). Serum from immunized rabbit (known to contain OTV16-binding antibody) was used as a positive binding control. Serial dilutions of antibody were incubated for 1 hr in ELISA plates coated with peptide or BSA. Plates were washed, and bound antibody was detected using anti-rabbit IgG conjugated to […] with absorbance measured at 405 nm.
(§2) 96-well plates suitable for ELISA were coated with peptide (1 μg/mL) in PBS and incubated 1 h at 37° C. The peptides used to coat the plates were OTV16 (SEQ ID NO:3; described above), NHP-OTV16 (SEQ ID NO:5; described above), rOTV16 (SEQ ID NO:7; described above) and mOTV16 (SEQ ID NO:9; described below). Plates were washed with PBS containing 0.05% Tween and incubated 1 h at 37° C. in the presence of blocking buffer (PBS, 0.5% BSA, 0.05% Tween 20, pH 7.4). A serial dilution of recombinant antibodies of the invention (23B9-1 or 24C6-1 or 27A2-1 or 29B5-1 or 2B₁₁-1 or 33B6-1 or 4D11-1 or 54F1-1 or 69H7-1 or 75C9-1 or 9E4-1) was added in blocking buffer and incubated for 1 h at RT. Plates were washed with PBS containing 0.05% Tween and a secondary antibody (anti-rabbit IgG conjugated to Alkaline Phosphatase (DAKO)), was added and incubated for 1 h at RT. Plates were washed with PBS containing 0.05% Tween followed by addition of 1 mg/mL pNPP (p-nitrophenyl […] phosphate) in pNPP buffer. Absorbance was measured at 405 nm. Serum from rabbit immunized with OTV16 peptide was used as a positive control. Non-specific binding, e.g. to plastic, was determined using wells coated with bovine serum albumin (BSA) protein.

Binding result, binds:
B1
B2
B3
B4
B5
B6
B7

Biological target: T2, mOTV16 peptide (SEQ ID NO:9) (mouse, disulfide 1-19)
T2 construct: cyclic
T2 peptide: Propargyl-CYRPVEGLPPYKLNNTVGC-NH2
Assay: as above
Experimental: as §1, §2

Binding result, binds:
B8
B5
B6
B9

Biological target: T3, NHP-OTV16 peptide (SEQ ID NO:5) (Macaca mulatta, disulfide 1-18)
T3 construct: cyclic
T3 peptide: Propargyl-CYRPVDGLPPFKMEKTEC-NH2
Assay: peptide ELISA of B-cell clone supernatant
Experimental: (§3) FIG. 5: Peptide ELISA of B-cell clone supernatants. Antibody in supernatant from B-cell clones was tested for binding to OTV16 peptide, NHP-OTV16 peptide and rOTV16 peptide respectively. B-cell supernatants were incubated for 1 hr in 96-well plates coated with the respective peptide. Plates were washed and bound antibody was detected using anti-rabbit IgG conjugated to horse radish peroxidase with absorbance measured at 450 nm. Serum from immunized rabbit was used as a positive binding control. B-cell culture medium (antibody-free) was used as a negative control. N=1.
(§4) 96-well plates suitable for ELISA were coated with respective peptide (1 μg/mL) in PBS and incubated 1 h at 37° C. or overnight at 4° C. The peptides used to coat the plates were OTV16 (SEQ ID NO:3), NHP-OTV16 (SEQ ID NO:5), and rOTV16 (SEQ ID NO:7) (described below). Plates were washed with wash buffer and incubated 1 h at 37° C. in the presence of blocking buffer (PBS, 0.5% BSA, 0.05% Tween 20, pH 7.4). B-cell supernatants were added and incubated for 1 h at 37° C. Plates were washed with wash buffer and Mouse Anti-Rabbit IgG Fc Antibody conjugated to horseradish peroxidase (Genscript, cat #A01856) was added and incubated for 30 minutes, 37° C. Plates were washed with wash buffer followed by addition of substrate solution, 100 μl/well and incubated for 13-20 minutes at RT. Reaction was stopped by adding 100 μl/well of stop solution. Absorbance was measured at 450 nm. Serum from immunized rabbit known to contain antibody that binds to OTV16 peptide was used as a positive control. B-cell culture medium (antibody-free) was used as a negative control.

Binding result, binds:
B1
B2
B10
B11
B3
B4
B8
B5
B6
B9
B7

Biological target: T1, OTV16 peptide (SEQ ID NO:3)
Assay: peptide ELISA of B-cell clone supernatant
Experimental: as §3, §4

Binding result, binds:
B10
B11
B8
B9

Biological target: T4, rOTV16 peptide (SEQ ID NO:7) (rat, disulfide 1-18)
T4 construct: cyclic
T4 peptide: Propargyl-CYRPVEGLPPYKLKNTGC-NH2
Assay: peptide ELISA of B-cell clone supernatant
Experimental: as §3, §4

Binding result, binds:
B5
B6
